Assay results as given in patent US20110182905A1.

Molecular target: purified hGM-CSF (Biomol #2514, expressed in E. coli) (human) (UniProt P04141)
Experiment: cell-based or functional assay

Sequence of purified hGM-CSF (Biomol #2514, expressed in E. coli) (human) (P04141 18-144 limits assumed): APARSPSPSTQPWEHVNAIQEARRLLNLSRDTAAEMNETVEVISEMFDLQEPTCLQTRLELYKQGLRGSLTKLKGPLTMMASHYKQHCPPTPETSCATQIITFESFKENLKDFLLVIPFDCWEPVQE

- TF-1 assay hGM-CSF (E. coli) [pM], GM-CSF final concentration 1.0 ng/ml: 8260 pM
Substance: rat-anti-human-GM-CSF IgG2a BVD2-21C11 (BD #554503) (antibody)
